From PMC4259812 (The Journal of Cell Biology, 2014)

Target: T1, human raver1 RRM1-3 domains (residues 39-321) (human, UniProt Q8IY67 39-321)
T1 sequence: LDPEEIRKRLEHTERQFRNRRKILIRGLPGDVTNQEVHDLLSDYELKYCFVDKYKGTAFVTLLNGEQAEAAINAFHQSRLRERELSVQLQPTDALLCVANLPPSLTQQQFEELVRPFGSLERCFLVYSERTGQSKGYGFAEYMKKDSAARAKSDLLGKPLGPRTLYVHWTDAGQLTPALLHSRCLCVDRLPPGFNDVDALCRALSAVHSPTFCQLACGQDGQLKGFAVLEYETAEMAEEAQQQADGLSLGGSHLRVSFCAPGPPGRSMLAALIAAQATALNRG
Assay: SEC

binding result: binds
B1: human vinculin tail domain (Vt), wild type, residues 891-1,066 (domain or fragment)
chain: GEVINQPMMMAARQLHDEARKWSSKGNDIIAAAKRMALLMAEMSRLVRGGSGTKRALIQCAKDIAKASDEVTRLAKEVAKQCTDKRIRTNLLQVCERIPTISTQLKILSTVKATMLGRTNISDEESEQATEMLVHNAQNLMQSVKETVREAEAASIKIRTDAGFTLRWVRKTPWYQ
